Results on 22 molecules are retold here after publication PMC10720262 (Cell Reports, 2023).

The assay deals with recombinant full-length PfCSP (Plasmodium falciparum circumsporozoite protein, strain NF54) (Plasmodium falciparum NF54, UniProt P19597).
recombinant full-length PfCSP (Plasmodium falciparum circumsporozoite protein, strain NF54), sequence (P19597 20-375): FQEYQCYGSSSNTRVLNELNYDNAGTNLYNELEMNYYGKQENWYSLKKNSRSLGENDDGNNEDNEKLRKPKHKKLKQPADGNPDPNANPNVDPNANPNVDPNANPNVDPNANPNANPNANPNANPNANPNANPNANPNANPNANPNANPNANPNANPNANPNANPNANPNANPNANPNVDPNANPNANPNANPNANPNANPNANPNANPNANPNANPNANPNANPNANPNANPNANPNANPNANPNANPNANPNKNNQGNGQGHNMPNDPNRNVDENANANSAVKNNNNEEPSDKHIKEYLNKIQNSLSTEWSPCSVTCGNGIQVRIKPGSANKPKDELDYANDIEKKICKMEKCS

B1: CL-512469 (antibody, V domains shown)
VH: QMQLVESGGGVVQPGRSLTLSCEASGFTFSNYGMHWVRQAPGKGLEWVAIIWFDGSHRFYADAVEGRFTISRDNSKNTLFLQMTSLRAEDAAVYYCARVGQFSSSSWGAFDIWGQGTVVTVSS
VL: EIVLTQSPGTLSLSPGESVTLSCRASQIISNTHLAWYQQKPGQAPSLLIYGASSRATGIPDRFSGSGSGTDFTLTISRLEPEDFAVYYCQQYGRLWTFGQGTKVEIK
As for B1, the binding result is “binds”.

B2: CL-512508 (antibody, V domains shown)
VH: QVQLVESGGGVVQPGTSLRLSCGASGFTFSSYGMHWVRQAPGKGLEWVAIIWYDGNNKYYADSVKGRFTISRDNSKNTLYLQMNSLRAEDTAVYYCAKVGQFSTSSWGAFDIWGQGTMVTVSS
VL: EIVLTQSPGTLPLSPGERATLSCRASQSVSSSQLAWYQQKPGQAPRLLIYGASSRATAIPDRFSGSGSGTDFTLTISRLEPEDFAVYYCQQYSRLWTFGQGTKVEIK
Take B2: the binding result is given as “binds”.

B3: CL-513094 (antibody, V domains shown)
VH: QVQLVESGGGVVQPGRSLRLSCAASGFTFSGSGMHWVRQAPGRGLEWVAIIWYDGSHKYYVDSVQGRFIISRDNSKNTLYLEMNNLRVEDTAVYYCVRAYPSGSSNDKYGMDVWGQGTTVTVSS
VL: not shown
As for B3, the binding result is recorded as “binds”.

B4: CL-512264 (antibody, V domains shown)
VH: QVQLVESGGGVVQPGRSLRLSCVTSGFTFSNFGMHWVRQAPGKGLEWVAIIWYDGSNKFYADSLKGRFTISRDNSKNTLFLQMNSLRAEDTAVYYCARAHTVTTANDKYGTDVWGQGTTVTVSS
VL: DIQMTQSPSTLSASVGDRVTITCRASQSISSWLAWYQHKPGKAPKLLIYKASSLESGVPSRFSGSGSGTEFTLTISSLQPDDFATYFCQQYNSYWTFGQGTKVEIK
Regarding B4, the binding result is “binds”.

B5: CL-513462 (antibody, V domains shown)
VH: QVQLVESGGGVVQPGRSLRVSCAASGFTFSNYGMYWVRQAPGKGLEWVAVIWHDGTNKFYEDSVKGRFTISRDNSKNTLYLQMNSLRAEDTAVYYCARAGYFQGSGSFLDYWGQGTLVTVSS
VL: DIQMTQSPSTLSASVGDRVTITCRASQSISSWLAWYQQKPGKAPKLLIYKASSLESGVPSRFSGSGSGTEFTLTISSLQPDDFATYFCQQYSSYWTFGQGTKVEIK
As for B5, the binding result is on record as “binds”.

B6: CL-513617 (antibody, V domains shown)
VH: QVQLVESGGGVVQPGRSLRLSCAASGFIFSNYGMYWVRQTPDKGLEWVALIWYDGGNKFYSDSVKGRFTVSRDNSKNTLYLQMNSLRDEDTALYYCARAGYFYGSGSSLDKWGQGTLVTVSS
VL: DIQMTQSPSTLSASVGDRVSITCRASQSISIWLAWYQQKPGKAPKLLIYKASSLESGVPSRFSGSGSGTEFSLTISSLQPDDFATYYCQQYNRYWTFGQGTKVEIK
On to B6, for which the binding result is “binds”.

B7: CL-512275 (antibody, V domains shown)
VH: QVQLVESGGGVVQPGGSFRLSCETSGFTFSNFGMHWVRQAPGKGLEWVALIWYDGSHKFYADSLTGRFTISRDNSKNTLYLQMNSLRVEDTAVYYCARAHSVTTANDKYGTDVWGQGTTVTVSP
VL: DIQMTQSPSTLSASVGDRVTITCRASQSISSWLAWYQHKPGRAPKLLIYKASSLESGIPSRFSGSGSGTEFTLTISSLQPDDFATYFCQQYNSYWTFGQGTKVEIK
As to B7, the binding result is “binds”.

B8: CL-512564 (antibody, V domains shown)
VH: QVQLVESGGGVVQPGRSLRLSCAASGFTFSNSGMHWVRQAPGKGLEWVAIIWYDGSHKFYADSVKGRFTISRDNSKNTLYLQMNSLRIEDTAMYYCVRSYNWNYPVRGDYKYGMDVWGQGTTVTVSS
VL: DIQMTQSPSTLSASVGDRVTITCRASQSISSWLAWFQQKPGKAPNLLIYMASSLQSGVPSRFSGSGSGTEFTLTISSLQPDDFATYYCQQFNTYWTFGQGTKVEIK
In the case of B8, the binding result is “binds”.

B9: CL-513701 (antibody, V domains shown)
VH: QVQLVESGGGVVQTGRSLRLSCTASGFIFSNYGMYWVRQAPGKGLEWVALIWYDGSNKYYVDSVKGRFTISRDNSKNTLYLQMNSLRAEDTAVYYCARAGKYSGSGSYLDSWGQGTLVTVSS
VL: DIQMTQSPSSVSASVGDRVTITCRASQGISSWLAWYQQKPGKAPKLLIYTASSLQSGVPSRFSGSGSGTDFTLTISSLQPDDFATYFCQQYSRYWTFGQGTKVEIK
Take B9: the binding result is reported as “binds”.

B10: CL-513069 (antibody, V domains shown)
VH: QVQLVESGGGVVQPGKSLRLSCEASGFTFSNYGMHWVRQAPGKGLDWVAIIWHDGGNKFYADSVRGRFTISRDNSKNTLFLQMNSLRAEDSAVYYCARVFDFRDSCYTMDVWGQGTTVTVSS
VL: DIQMTQSPSTLSASVGDRVTITCRASQSISSWLAWYQQKPGKAPKLLIYKASSLESGVPSRFSGSGSGTEFSLTISSLQPDDFATYYCQQYTRYWTFGQGTRVEIQ
B10: the binding result is listed as “binds”.

B11: CL-513274 (antibody, V domains shown)
VH: QVQLVESGGGVVQPGRSLRVSCAASGFTFSNYGMYWVRQAPGKGLEWVALIWHDGSNKFYEDSVKGRFTISRDNSKNTLYLQMNSLRAEDTAVYYCARAGYFQGSGSFLDYWGQGTLVTVSS
VL: DIQMTQSPSTLSASVGDRVTITCRASQSISTWLAWYQQKPGKAPKLLIYKASSLESGVPSRFSGSGSGTEFTLTISSLQPDDFATYFCQQYSSYWTFGQGTKVEIK
Take B11: the binding result is reported as “binds”.

B12: CL-512871 (antibody, V domains shown)
VH: QVLLVESGGGVVQPGRSLRLSCAASGFTFSNYGMHWVRQAPGKGLEWVALIRYDGINKFYADSVKGRFTISRDNSENTLYMQINSLRAEDTAMYYCAKAYNTSSDYYYGMDVWGQGTTVTVSS
VL: DIQMTQSPSTLSASVGDRVTITCRASQSISTWLAWYQQKPGKAPKLLIYKASRLESGVPSRFSGSGSGTEFTLTISSLQPDDLATYYCQQFNSYWTFGQGTKVEIR
As for B12, the binding result is recorded as “binds”.

B13: CL-512761 (antibody, V domains shown)
VH: QVQLVESGGGVVQPGTSLRLSCAASGFTFSNYGMHWVRQAPGKGLEWVSITWYDESNKFYADSVKGRFTISRDNSKNTLYLQMNSLRAEDTAVYYCARAYDTLTGYRAQKYGMDVWGQGTTVTVSS
VL: DIQMTQSPSTLSASVGDRVTITCRASQRISTWLAWYQQKPGKAPKLLINEASRLESGVPSRFSGSGSGTEFTLTISSLQPDDFATYYCQQYNSYWTFGQGTKVEIK
Turning to B13, the binding result was “binds”.

B14: CL-512319 (antibody, V domains shown)
VH: QVQLVESGGGVVQPGRSLRLSCAASGFTFSNFGMHWVRQAPGKGLEWVAVIWYDGSHKFYADSLKGRFTISRDNSKNTLYLQMNNLRAEDTAVYYCARAHPVTTDYDKYGMDVWGQGTTVTVSS
VL: DIQMTQSPSTLSSSVGDRVTITCRASQSISIWLAWIQQKPGKAPKLLIYKASSLESGVPSRFSGSGSGTEFTLTISSLQPDDFATYYCQQFYSYWTFGLGTKVEIK
As for B14, the binding result is “binds”.

B15: CL-513279 (antibody, V domains shown)
VH: QVQLVESGGGVVQPGRSLRLSCAASGFTFSNFGMHWVRQAPVKGLEWVALIWYDGSNKFYADSVQGRFTISRDNSKNILYLQMNSLRAEDTAVYYCAKVEARGVDYHSYGMDVWGQGTTVTVSS
VL: DIQMTQSPSTLSASVGDRVTITCRASQSISSWLAWYQQKPGKAPQLLIYKASSLESGVPSRFSGSGSGTEFTLTISSLQPDDFATYYCQQYKYYWTFGQGTKVEIK
As to B15, the binding result is given as “binds”.

B16: CL-512870 (antibody, V domains shown)
VH: QVQLVESGGGVVQPGRSLRLSCEASGFTFSHYGMHWVRQAPGRGLEWVAIIWYDGSNTYYRDSVKGRFTISRDNSKDTLFLQMNSLRPDDTAVYYCARALYYDSGSLFDFWGQGTLVTVSS
VL: DIQMTQSPSTLSASVGDRVTITCRASQSISSWLAWYQQKPGKAPKLLIYKASSLETGVPSRFSGSGFGTEFTLSISSLQPDDFATYYCLQYNIYWTFGQGTKVEIK
Turning to B16, the binding result is listed as “binds”.

B17: CL-512296 (antibody, V domains shown)
VH: QVQLVESGGGVVQPGRSLRLSCAASGFTFSNYGMHWVRQAPGKGLEWVAVIWYDGSKKFYADSVMGRFTISRDNSKNTLVLQMNSLGAEDTAVYYCARDRGYSGYVFDYWGQGTLVTVSS
VL: QSALTQPASVSGSPGQSIAISCTGTSSDVGGYNFVSWYRHHPGKAPKLMIYDVSNRPSGVSNRFSGSKSGNTASLTISGLQAEDEADYYCCSYAGSCSVFGGGTKLTVL
In the case of B17, the binding result is reported as “binds”.

B18: CL-513083 (antibody, V domains shown)
VH: QVQLVESGGGVVQPGRSLRLSCAASGFTFSNYGMHWVRQAPGRGLEWVAIIWYDGSNKYYEDSVKGRFTISRDNSKNTLYLQMNSLRAEDTAVYYCARAQWLDQRHYHYTMDVWGQGTTVTVSS
VL: not shown
Take B18: the binding result was “binds”.

B19: CL-513041 (antibody, V domains shown)
VH: QEHLVESGGGVVQPGRSLRLSCAASGFTFSNSGMHWVRQAPGKGLEWVAVIWYDGSNKFYADSVRGRFTISRDNSNNTLYLQMNSLRAEDTALYYCARDRLFSGSWNWFDPWGQGTLVTVSS
VL: EIVLTQSPATLSLSPGERATLSCRASQSVSTYLAWYQQKPGQAPRLLIYDASNRATGIPARFSGSGSGTDFTLTISSLEPEDFAVYYCQQRSNWFTFGGGTKVEIK
For the molecule B19, the binding result was “binds”.

B20: CL-512459 (antibody, V domains shown)
VH: QVQLVESGGGVVQPGRSLRLSCTASGFTFSDYGMHWVRQAPGKGLEWVSIIWYDGSKKYYADSVQGRFTISRDNSKNTLYLQMSSLRAEDTAVYYCARAYGSGSYYTFNYWGQGTLVTVSS
VL: EIVMTQSPATLSVSPGERATLSCRASQSVNSNLAWYQQKPGQAPRLLIYGASTRATGFPARFIGSGSGTDFTLTINSLQSEDFAVYYCQQYNHWWTFGQGTKVEIK
Turning to B20, the binding result is on record as “binds”.

B21: CL-512374 (antibody, V domains shown)
VH: QVQLVESGGGVVQPGRSLRLSCAASGFTFSSYGMHWVRQAPGKGLEWVAVIWYDGSNKYYADSVKGRFTISRDNSKNTLYLQMNSLRAEDTAVYYCARDGGGTTRSFDLWGRGTLVTVSS
VL: QSVLTQPPSVSGAPGQRVTISCTGSSSNIGAGYDVHWYQQLPGTAPKLLIYGNSNRPSGVPDRFSGSKSGTSASLAITGLQAEDEADYYCQSYDSSLSGSMFGGGTKLTVL
On to B21, for which the binding result is recorded as “binds”.

B22: CL-513691 (antibody, V domains shown)
VH: QVQLVESGGDVVQTGRSLRLSCAASGFTFSNYGMHWVRQAPDKGLEWVAIIWYDGSNKFYADSVKGRFTISRDNSKNTLYLHIHSLRAEDTAVYYCARDDRGDSAGPYFVYWGQGTLVTVSS
VL: EIVMTQSPATLSVSPGERATLSCRASQSVSDNLAWYQQRPGQAPRLLIYGASIRATGIPARFGGSGSGTEFTLTISILQSADFAVYYCQQHDSWPWTFGQGTKVEIK
With B22, the binding result is given as “binds”.
